Reference: paper PMC7822688, “W196 and the β-Hairpin Motif Modulate the Redox Switch of Conformation and the Biomolecular Interaction Network of the Apoptosis-Inducing Factor” (Oxidative Medicine and Cellular Longevity, 2021)
Where “and” joins values, the source holds several entries; their conditions need not be identical. Identical values can stand only once. Entries after “also recorded” stand apart in the source; their conditions may differ. Like-named read-outs stand apart in the source and are kept apart here.

Experiments:
[1] = molecular target: T1, CHCHD4 (Homo sapiens, UniProt Q8N4Q1); assay: ITC binary interaction with CHCHD4; format: binding; settings: for Kd / ΔG / ΔH / -TΔS: 25°C, pH 7.4
T1 construct: His6 (N); made in house; host or cells: E. coli C41 (DE3)
T1 sequence (Q8N4Q1 1-142): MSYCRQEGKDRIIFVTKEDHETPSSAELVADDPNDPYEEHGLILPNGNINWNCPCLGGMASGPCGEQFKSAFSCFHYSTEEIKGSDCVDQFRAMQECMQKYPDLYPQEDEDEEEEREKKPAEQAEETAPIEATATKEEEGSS
Method: (§1) ITC assays were carried out using an Auto-iTC200 (MicroCal, Malvern-Panalytical, Malvern, UK) thermostated at 25 °C. Typically, […] protein partner and dsDNA samples—prepared as described below—were used to titrate ~10 μM hAIF∆1-101 variants. All solutions were degassed at 15°C for 1 min before each assay. A sequence of 2 μL injections of titrant solution every 150 s was programmed, and the stirring speed was set to 750 rpm. The association constant (Ka), the enthalpy of binding (ΔH), and the binding stoichiometry (N) were estimated through nonlinear least-squares regression of the experimental data employing a single-ligand binding site model implemented in Origin 7.0 (OriginLab, Northampton, MA). The dissociation constant (Kd), the free energy change (ΔG), and the entropy change (ΔS) were obtained from basic thermodynamic relationships.

[2] = Stopped-flow CTC formation on mixing photoreduced hAIF∆1-101 with NAD+; format: biochemical; settings: for k CTC: hAIF∆1-101phrd variants mixed with NAD+; for k CTC / k CTC/Kd^NAD+ / Kd: anaerobic, 25°C, pH 7.4; for k CTC/Kd^NAD+: hAIF∆1-101phrd variants; for Kd: transient hAIF∆1-101phrd:NAD+ complex, read-out: K d ^NAD+
Method: Stopped-flow spectrophotometry was also used to evaluate the rate constants of CTC formation when mixing photoreduced hAIF∆1-101 (hAIF∆1-101phrd) with increasing concentrations of NAD^+ (0.125-5 mM) under anaerobic conditions. hAIF∆1-101phrd samples were obtained by photoreduction in the presence of 5 μM methyl viologen, 3 μM 5-deazariboflavin, and 20 mM EDTA. The assays were performed at 25 °C in 50 mM potassium phosphate, pH 7.4, under anaerobic conditions (obtained by several cycles of vacuum application and bubbling with O2 free argon). Data were global fitted to a single step model (A→B), and kobs were determined at the different NAD^+ concentrations assayed. These values were then fitted to the equation that describes the formation of a transient hAIF∆1-101phrd:NAD^+ complex prior to the CTC stabilization: (4) kobs=kCTCNAD^+/KdNAD++NAD^+, in which kCTC is the limiting rate constant for the rearrangement of the encounter complex to form the CTC, and Kd^NAD+ is the dissociation constant for the mentioned transient encounter complex.

[3] = molecular target: dsDNA; assay: ITC binary interaction with dsDNA; format: binding; settings: for Kd for DNA higher than WT: hAIFΔ1−101ox, binary complexes; for Kd: oxidized hAIF∆1-101 titrated with 15-bp dsDNA, 25°C, pH 7.4
Method: as §1
Since hAIF binds DNA unspecifically, a 0.5 mM dsDNA sample was prepared from 1 mM solutions of HPLC-purified forward and a reverse complementary 15-bp oligonucleotides (5′- GGT TAG TTA TGC GCG -3′; randomly designed) synthetized by Integrated DNA Technologies. The pair of oligonucleotides was mixed at an equimolar ratio and annealed by heating 1 min at 99°C and performing a 3 h temperature scanning from 95 to 25°C, decreasing 1°C each 3 min. 0.5 mM dsDNA stock solutions were obtained.

[4] = Reactivity of the CTC towards molecular oxygen (CTC half-life); format: biochemical; settings: 25°C, air saturated 50 mM potassium phosphate, pH 7.4
Method: The reactivity of the CTC towards molecular oxygen was monitored by full reduction of hAIF∆1-101 samples with NADH (1.5-fold the concentration of the protein) in 50 mM phosphate buffer, pH 7.4, and following their reoxidation in a Cary 100 spectrophotometer (Agilent, Santa Clara, CA). Absorption spectra were recorded at 25 °C until full oxidation of the flavin cofactor was achieved. For each time, the percent remaining of CTC versus reoxidation by molecular oxygen was estimated as ΔAt/ΔAmax, where ΔAmax is the difference between the minimum and the maximum absorbance at 700 nm, and ΔAt is the difference of each value at 700nm minus the minimum absorbance at 700 nm. The CTC half-life is the time at which 50% of CTC still remains.

[5] = Stopped-flow reduction of hAIF∆1-101ox by NADH (hydride transfer); format: biochemical; settings: for k HT/Kd^NADH / k HT / Kd: pre-steady-state, 25°C, pH 7.4; for k HT: hydride transfer from NADH to FAD, aerobic, 50 mM potassium phosphate; for Kd: transient hAIF∆1-101ox:NADH complex, read-out: K d ^NADH
Method: A SX18.MV stopped-flow spectrophotometer (Applied Photophysics Ltd., Surrey, UK), interfaced with the ProData-SX software and a photodiode array detector, was used to investigate the fast kinetic reduction of the hAIF variants by the NADH coenzyme. Samples of ~10 μM hAIF∆1-101ox were mixed with increasing concentrations of NADH (0.03-10 mM) under aerobic conditions in 50 mM potassium phosphate, pH 7.4, at 25 °C. The enzyme and NADH concentrations are the final ones obtained after mixing equal volumes of substrate and enzyme. Observed rate constants for the hydride transfer (HT) event (kobs) were calculated by global analysis and numerical integration methods (simultaneously using all spectral data in the 400-800 nm region along time evolution). A single-step model (A→B) best fitted to describe the overall reaction at all NADH concentrations assayed. Averaged kobs values at each NADH concentration were then fitted to the equation that describes the formation of an enzyme:substrate complex prior to the HT event: (3) kobs=kHTNADH/KdNADH+NADH+krev, where kHT is the limiting rate constant for HT from the pyridine nucleotide coenzyme to the FAD cofactor of hAIF, Kd^NADH is the dissociation constant of the transient hAIF∆1-101ox:NADH complex, and krev is the reaction constant for a potential overall reverse process.

[6] = molecular target: T2, CypA (Homo sapiens, UniProt P62937); assay: ITC binary interaction with CypA; format: binding; settings: oxidized hAIF∆1-101 titrated with CypA, 25°C, pH 7.4
T2 construct: His6 (N); made in house; host or cells: E. coli C41 (DE3)
Method: as §1

[7] = for T m CTC ^FAD − Tm^FAD: CTC state relative to oxidized state of the same variant; for ΔTm^FAD: variant relative to WT; for T m ^FAD: ~2 μM protein, 50 mM potassium phosphate
Method: Thermal denaturation curves were followed by changes in the FAD fluorescence emission upon its release from the protein by sample excitation at 450 nm. Curves were monitored from 10 °C to 90 °C with scan rates of 1°C/min, both in the absence and presence of a 100-fold excess of NADH. The curves for each variant were roughly normalized to values between 0 and 1 and globally fitted to a two-step process describing a single transition unfolding equilibrium (native (N)↔unfolded (U)) by using the following equation [23]: (1) Sobs=SN+mNT+SU+mUTe^−ΔG/RT/1+e^−ΔG/RT, in which Sobs is the measured protein signal at a given temperature (T). SN and SU are intercept at 0 K with the y-axis of the linear extrapolation for the native and unfolded pre- and posttransition regions, respectively, while mN and mU are the corresponding slopes. The stabilization Gibbs energy depends on temperature according to ΔG = ΔH(1 − 1/Tm) + ΔCP(T − Tm − Tln(T/Tm)), where ΔH is the unfolding enthalpy, Tm is the midtransition temperature, ΔCP is the unfolding heat capacity change, and R is the ideal gas constant.

[8] = Steady-state DCPIP-dependent diaphorase (NADH oxidase) activity; format: biochemical; settings: for K m ^NADH / k cat: steady-state, NADH donor, 95 μM DCPIP acceptor, 25°C, 50 mM potassium phosphate, pH 7.4 (table footnote); for k cat: n = 3, mean ± SD
From the text: […] When saturation profiles on the pyridine nucleotide concentration were observed, kinetic constants were estimated by fitting initial reaction rates at different coenzyme concentrations to the Michaelis-Menten equation: (2) ν/e=kcat NADH/KmNADH+NADH,ν/e=kcat/KmNADHNADH/1+kcat/KmNADHNADH/kcat, where v stands for the initial velocity, e is the enzyme concentration, Km^NADH is the Michaelis constant for the enzyme-NADH complex, kcat is the turnover number of the enzyme, and kcat/Km^NADH is the enzyme catalytic efficiency.

[9] = CTC form (premixed with NADH 1:100) titrated with CHCHD4, ITC, read-out: K d
[10] = CTC form titrated with CHCHD4, ITC
[11] = oxidized hAIF∆1-101 titrated with CHCHD4, ITC
[12] = CTC hAIF∆1-101rd:NAD^+, 100-fold excess NADH
[13] = CTC hAIF∆1-101rd:NAD^+, 100-fold excess NADH, pH 7.4, ionic strength 150 mM
[14] = hAIF∆1-101ox, pH 7.4, ionic strength 150 mM
[15] = steady-state DCPIP diaphorase reaction

T2 sequence (P62937 whole entry): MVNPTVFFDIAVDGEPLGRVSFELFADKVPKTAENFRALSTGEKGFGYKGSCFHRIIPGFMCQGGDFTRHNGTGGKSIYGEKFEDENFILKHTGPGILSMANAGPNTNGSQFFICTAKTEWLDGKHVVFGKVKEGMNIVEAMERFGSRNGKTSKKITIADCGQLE

Substance | Kd [1, 9] [µM] | ΔG [1, 10] [kcal/mol] | ΔH [1, 10] [kcal/mol] | k CTC [2] [s⁻¹] | k CTC/Kd^NAD+ [2] [M⁻¹ s⁻¹] | decrease in Kd^NAD+ relative to WT ([2]; hAIF∆1-101phrd with NAD+) | Kd [2] [µM] | Kd for DNA higher than WT [3] | Kd [3] [µM] | CTC half-life versus reoxidation by O2 [4] [min] | k HT/Kd^NADH [5] [M⁻¹ s⁻¹] | k HT [5] [s⁻¹] | Kd [5] [µM] | -TΔS [6] [kcal/mol] | ΔG [6] [kcal/mol] | ΔH [6] [kcal/mol] | ΔH (unfolding enthalpy) [7, 12] [kcal/mol] | T m CTC ^FAD [7, 13] [K] | T m CTC ^FAD − Tm^FAD [7] [K] | ΔH (unfolding enthalpy) [7, 14] [kcal/mol] | other results
W196A: W196A site-directed mutant of hAIF∆1-101; ox = oxidized, CTC = charge transfer complex with NAD+ | 0.5 | -8.3 | -5.9 | 30 ± 1 | 76000 ± 10000 | ~ 5 fold | 394 ± 50 | ~ 4 fold | 5.8 | 62 | 117000 ± 5300 | 126 ± 1 | 1070 ± 40 | -34.9 | -7.6 | 27.3 | 170 ± 4 | 326 ± 1 | 0 | 103 ± 3 | Kd ([1]; oxidized hAIF∆1-101 titrated with CHCHD4, ITC, 50 mM potassium phosphate, listed as W196Aox, read-out: K d): ~0.4 µM and 0.4 µM; -TΔS [1, 11]: -18.0 kcal/mol; ΔG [1, 11]: -8.4 kcal/mol; ΔH [1, 11]: 9.6 kcal/mol; higher affinity for the NADH substrate relative to WT ([5]; stopped-flow, NADH): ~ 5 fold; ΔTm^FAD ([7]; hAIF∆1-101ox): −11 ± 2 K; T m ^FAD [7, 14]: 326 ± 1 K; increase in turnover rate relative to WT [8, 15]: ~ 5 fold; K m ^NADH [8]: 25 ± 4 µM; k cat [8]: 4.3 ± 0.2 s⁻¹
W196Y: W196Y site-directed mutant of hAIF∆1-101; ox = oxidized, CTC = charge transfer complex with NAD+ | 2.1 | -7.5 | -8.2 | 16 ± 1 | 87000 ± 14000 | ~ 11 fold | 183 ± 27 | ~ 4 fold | 6.9 | 42 | 4000 ± 800 | 12 ± 1 | 2870 ± 320 | -24.9 | -7.9 | 17.0 | 167 ± 4 | 323 ± 1 | −6 ± 2 | 123 ± 3 | -TΔS [1, 10]: 0.7 kcal/mol; Kd for CHCHD4 higher relative to WT CTC ([1]; CTC form, ITC): ~ 10 fold; Kd ([1]; oxidized hAIF∆1-101 titrated with CHCHD4, ITC, 50 mM potassium phosphate, listed as W196Yox): heat exchange was not observed; also recorded: No detected binding; decrease in kCTC relative to WT ([2]; hAIF∆1-101phrd with NAD+): less than 3 fold; efficiency as hydride acceptor from NADH relative to WT ([5]; stopped-flow, NADH): ~ 12 fold; ΔTm CTC^FAD ([7]; CTC state, variant relative to WT CTC): −1 ± 2 K; ΔTm^FAD ([7]; hAIF∆1-101ox): −8 ± 2 K; T m ^FAD [7, 14]: 329 ± 1 K; efficiency oxidizing NADH relative to WT [8, 15]: ~ 3 times; increase in turnover rate relative to WT [8, 15]: ~ 3 fold; K m ^NADH [8]: 505 ± 35 µM; k cat [8]: 2.7 ± 0.1 s⁻¹
